Results reported in PMC8038991, “R-catcher, a potent molecular tool to unveil the arginylome” (Cellular and Molecular Life Sciences: CMLS, 2021).

B1: R-CRT: Nt-arginylated CRT (protein)
chain: REPAVYFKEQFLDGDGWTSRWIESKHKSDFGKFVLSSGKFYGDEEKDKGLQTSQDARFYALSASFEPFSNKGQTLVVQFTVKHEQNIDCGGGYVKLFPNSLDQTDMHGDSEYNIMFGPDICGPGTKKVHVIFNYKGKNVLINKDIRCKDDEFTHLYTLIVRPDNTYEVKIDNSQVESGSLEDDWDFLPPKKIKDPDASKPEDWDERAKIDDPTDSKPEDWDKPEHIPDPDAKKPEDWDEEMDGEWEPPVIQNPEYKGEWKPRQIDNPDYKGTWIHPEIDNPEYSPDPSIYAYDNFGVLGLDLWQVKSGTIFDNFLITNDEAYAEEFGNETWGVTKAAEKQMKDKQDEEQRLKEEEEDKKRKEEEEAEDKEDDEDKDEDEEDEEDKEEDEEEDVPGQAKDEL
B2: CRT: ER chaperone calreticulin, arginylated (protein)
chain: REPAVYFKEQFLDGDGWTSRWIESKHKSDFGKFVLSSGKFYGDEEKDKGLQTSQDARFYALSASFEPFSNKGQTLVVQFTVKHEQNIDCGGGYVKLFPNSLDQTDMHGDSEYNIMFGPDICGPGTKKVHVIFNYKGKNVLINKDIRCKDDEFTHLYTLIVRPDNTYEVKIDNSQVESGSLEDDWDFLPPKKIKDPDASKPEDWDERAKIDDPTDSKPEDWDKPEHIPDPDAKKPEDWDEEMDGEWEPPVIQNPEYKGEWKPRQIDNPDYKGTWIHPEIDNPEYSPDPSIYAYDNFGVLGLDLWQVKSGTIFDNFLITNDEAYAEEFGNETWGVTKAAEKQMKDKQDEEQRLKEEEEDKKRKEEEEAEDKEDDEDKDEDEEDEEDKEEDEEEDVPGQAKDEL

What was measured:
GST-ZZ122-175^N132D = GST-ZZ122-175^N132D pulldown from HeLa lysates (MG132 plus TG); assay type: binding, human; conditions: HeLa lysate, immunoblot
Text: Using these lysates and purified GST tagged ZZ122-175^N132D (Supplementary Fig. 4A) immobilized on glutathione resin, we performed pulldown assays. […] In addition to pulling down R-BiP and R-CRT, GST-ZZ122-175^N132D was able to capture polyubiquitinated proteins, which were also disrupted by the D129A mutation and RA dipeptide competition (Supplementary Fig. 4B). This was expected because arginylated proteins are known to be ubiquitinated by E3 ligases containing a UBR box leading to their proteasomal degradation.
Fig. 4 ZZ122-175 ^N132D is capable of capturing known arginylated proteins in cells. a Western blot analysis to visualize arginylated BiP and CRT. […] N-terminally arginylated BiP and CRT were detected by immunoblotting using anti R-BiP and R-CRT antibodies. b GST pulldown assays to test the ability of wild type (WT) and N132D GST-ZZ in capturing cellular R-BiP and R-CRT. […] Pulled down R-BiP and R-CRT were detected using anti R-BiP and R-CRT antibodies. c Schematic drawing illustrating R-catcher. […] R-catcher bound arginylated proteins were detected by immunoblotting using anti-Myc or Flag antibody. e R-catcher pulldown assay to capture R-BiP and R-CRT induced in HeLa cells stimulated with MG132 plus TG in the absence or presence of 20 mM dipeptides TEXT PRINTED IN THE PICTURE: (C) R-catcher: ~ 9 kDa

R-catcher = experiment: Small-scale R-catcher pulldown of known arginylated proteins; assay type: binding, human; conditions: HeLa, MG132 plus TG, Fig. 4e
Procedure: For small-scale R-catcher pull-down assays, 300 µg of purified R-catcher was conjugated with 120 µl of Strep-Tactin sepharose resin by incubating overnight at 4 °C. To test R-catcher’s ability to capture known arginylated proteins, such as R-BiP, R-PDI, R-nsP4 and R-RGS4, plasmids encoding Ub-X-(BiP, PDI and nsP4) or MX-RGS4 (X = Arg or Val) were transiently transfected into HEK293 cells. After 24 h, cells were treated with 10 µM MG132 and 100 nM thapsigargin for another 24 h. Cells were harvested and lysed in hypotonic buffer and 300 µg total protein was incubate with 25 µl R-catcher-sepharose resin in binding buffer (20 mM HEPES pH 7.9, 0.05% Tween 20, 10% glycerol, 0.2 M KCl, protease inhibitor and phosphatase inhibitor) for 3 h with gentle rotation at 4 °C. After three washes with binding buffer, bound proteins were dissociated with 2 × SDS sample buffer and boiling at 100 °C and subjected to immunoblotting using anti-myc or flag antibodies.

[1] = system: HeLa cell extracts stimulated with MG132 plus TG; experiment: Large-scale R-catcher pulldown coupled to silver staining and LC-MS/MS; design: species or system human; conditions: LC-MS/MS working list
Procedure: For large-scale R-catcher pulldown assays, HeLa cells were treated with 5 µM MG132 and 100 nM thapsigargin for 24 h. Cells were lysed in hypotonic buffer and 10 mg total was incubated with 750 µl R-catcher-sepharose beads for 3 h at 4 °C after pre-clearing with D129A mutant R-catcher-sepharose beads for 3 h at 4 °C. After three washes with binding buffer, bound proteins were eluted with binding buffer containing 20 mM D-biotin. To remove R-catcher, the eluent was dialyzed using 20 kDa cut-off dialysis membrane in binding buffer containing 3.5 M MgCl2 overnight followed by another overnight dialysis in distilled-deionized water. The dialyzed eluent was lyophilized overnight and dried powder was dissolved in 100 µl LC/MS solubilizer for silver staining and mass spectrometry analysis.
Protein samples solubilized in Invitrosol LC/MS solubilizer (Invitrogen) as following by manufacturer protocol. For removal of incompatible buffer components, protein samples filtrate with 10 K MW ultrafilter for complete digestion. […]
Peptides were analyzed using a LC–MS/MS system consisting of an Easy nLC 1000 (Thermo Fisher scientific) and an Orbitrap Fusion Lumos mass spectrometer (Thermo Fisher Scientific) equipped with a nano-electrospray source (EASY-Spray Sources, Thermo Fisher Scientific). […]
MS/MS spectra were analyzed using the following software analysis protocols with the Uniprot human DB (2019). […]

Row | Molecule | pulldown by GST-ZZ122-175^N132D (GST-ZZ122-175^N132D) | pulldown by R-catcher, endogenous (R-catcher) | presence in R-catcher working list [1]
1 | B1 | efficiently pull down |  | 
2 | B2 |  | could pulldown | among the known arginylated proteins
